B1: SARS-CoV-2 VHH-cMYC-12xHis-tag (VH ab8) expressed by E. coli WK6 cells from the pHENC6-VHH plasmid (VHH)
VHH: EVQLVESGGGLVQPGGSLRLSCAASGFTFDDYAMSWVRQAPGKGLEWIGRMYNNGRTSYNPSLKSLVTISRDNSKNTLYLQMNSLRAEDTATYYCARDNLGYRPSENLYGMDVWGQGTTVTVSS
notes: also called bacteria-derived VHH antibody; pHENC6-VHH-c-Myc-12xHis-tag
B2: SARS-CoV-2 VHH-cMYC-12xHis-tag (VH ab8) expressed by EXPI293F mammalian cells from pCDNA 3.4 VHH (VHH)
VHH: B1 VHH
notes: also called VHH antibodies obtained in mammalian cells; pCDNA 3.4 VHH-c-Myc-12xHis-tag

Target: T1, recombinant human coronavirus SARS-CoV-2 Spike Glycoprotein RBD, isolate Wuhan-Hu-1 (Abcam), with C-terminal … (SARS-CoV-2, isolate Wuhan-Hu-1, UniProt P0DTC2 319-541)
T1 construct: also called SARS-COV2 spike protein; COVID-19 spike protein
Test: ELISA, RBD coated, anti-c-Myc-HRP detection

| Binder | binding result |
| --- | --- |
| B1 | binds |
| B2 | binds |

Reference: patent US20240401070A1 (RUTGERS THE STATE UNIVERSITY OF NEW JERSEY, published 2024)
